Measurements: PMC1802561 (Nucleic Acids Research, 2006)

T1: native YoeB (Escherichia coli, UniProt P69348 1-84)
T1 sequence: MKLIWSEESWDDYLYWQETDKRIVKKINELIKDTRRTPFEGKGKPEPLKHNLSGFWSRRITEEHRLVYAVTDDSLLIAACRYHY

T2: YoeB-His6 (Escherichia coli, UniProt P69348 1-84)
T2 sequence: T1 sequence

T3: YefM (native, intein-cleaved);YoeB (native, untagged) (Escherichia coli;Escherichia coli, UniProt P69346;P69348 1-83;1-84, |)
T3 sequence 1: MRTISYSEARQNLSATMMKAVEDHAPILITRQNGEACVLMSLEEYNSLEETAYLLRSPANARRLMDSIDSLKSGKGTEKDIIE
T3 sequence 2: T1 sequence

T4: YefM (native, intein-cleaved) (Escherichia coli, UniProt P69346 1-83)
T4 sequence: T3 sequence 1

T5: YefM-His6 (Escherichia coli, UniProt P69346 1-83)
T5 sequence: T3 sequence 1

T6: YoeB (native, untagged) (Escherichia coli, UniProt P69348 1-84)
T6 sequence: T1 sequence

T7: YoeB-His6 (Escherichia coli, UniProt P69348 1-84)
T7 sequence: T1 sequence

T8: His10-YefM (Escherichia coli, UniProt P69346 1-83)
T8 sequence: T3 sequence 1

B1: native YefM (natural protein)
chain: T3 sequence 1
B2: YefM of the YefM–YoeB–His6 complex (natural protein)
chain: T3 sequence 1
B3: 99 bp yefM-yoeB promoter-operator (oligos 1/2) (dsDNA)
DNA 1: GTCGAGAATTCTCTACAAACTAATTAATAAATAGTTAATTAACGCTCATCATTGTACAATGAACTGTACAAAAGAGGAGATTGACATGGGATCCAGTGC
DNA 2: GCACTGGATCCCATGTCAATCTCCTCTTTTGTACAGTTCATTGTACAATGATGAGCGTTAATTAACTATTTATTAATTAGTTTGTAGAGAATTCTCGAC

Assays:
cross-linking = molecular target: the molecule itself; test: cross-linking
native YoeB = molecular target: T1, native YoeB; test: native gel or EMSA
YoeB-His6 [1] = molecular target: T2, YoeB-His6; test: cross-linking
[2] = molecular target: T3, YefM (native, intein-cleaved);YoeB …; test: EMSA
[3] = molecular target: T4, YefM (native, intein-cleaved); test: EMSA
YefM-His6 = molecular target: T5, YefM-His6; test: EMSA
YoeB (native, untagged) = molecular target: T6, YoeB (native, untagged); test: EMSA
YoeB-His6 [4] = molecular target: T7, YoeB-His6; test: EMSA
His10-YefM = molecular target: T8, His10-YefM; test: EMSA

Binder	stoichiometry N (cross-linking)	binding result (native YoeB)	binding result (YoeB-His6 [1])	binding result [2]	binding result [3]	binding result (YefM-His6)	binding result (YoeB (native, untagged))	binding result (YoeB-His6 [4])	binding result (His10-YefM)
B1	2	binds							
B2	2		binds						
B3				binds	binds	binds	no binding	no binding	binds
